The values that follow come from patent US9701750B2.

Experiment [1] deals with human CD16A (FcγRIIIA) on the cell surface (human) (UniProt P08637).
The target of experiment [2] is human CD16A-Fc^48R/158V fusion protein (human). As to the kind of experiment: SPR (BIAcore 2000), CD16A-Fc immobilized, koff/kon. Background: In SPR one partner is held on a chip, and binding of the other changes the refractive index at the surface.
Experiment [3] addresses CD16B-Fc^NA1 (human). As to the kind of experiment: SPR (BIAcore 2000), antigen immobilized.
The target in experiment [4] is human CD16A-Fc^48R/158F fusion protein (human). As to the kind of experiment: SPR (BIAcore 2000), antigen immobilized.
Experiment [5] deals with human CD16A-Fc^48R/158V fusion protein (human). As to the kind of experiment: SPR (BIAcore 2000), antigen immobilized.
Experiment [6] has as its target CD16B-Fc^NA2 (human). As to the kind of experiment: SPR (BIAcore 2000), antigen immobilized.
Experiment [7] addresses CD16B-Fc^SH (human). As to the kind of experiment: SPR (BIAcore 2000), antigen immobilized.
The target in experiment [8] is CD16B-Fc^NA1 (human). Kind of experiment: SPR (BIAcore 2000), antigen immobilized, koff/kon.
Experiment [9] deals with human CD16A-Fc^48R/158F fusion protein (human). Kind of experiment: SPR (BIAcore 2000), antigen immobilized, koff/kon.
Experiment [10] has as its target human CD16A-Fc^48R/158V fusion protein (human). Kind of experiment: SPR (BIAcore 2000), antigen immobilized, koff/kon.
Experiment [11] addresses CD16B-Fc^NA2 (human). Kind of experiment: SPR (BIAcore 2000), antigen immobilized, koff/kon.
Experiment [12] deals with CD16B-Fc^SH (human). As to the kind of experiment: SPR (BIAcore 2000), antigen immobilized, koff/kon.
Experiment [13] addresses human CD16A-Fc^48R/158V fusion protein (human). Kind of experiment: SPR (BIAcore 2000), CD16A-Fc immobilized, 1/1 Langmuir model.

One may read the Kd as the concentration at which binding is half-saturated. A higher Kd goes with weaker binding. For orientation: koff means the rate constant with which the complex falls apart. What is called kon is the second-order rate constant of association.

For the substance anti-CD16 murine monoclonal antibody A9, the redirected lysis of FcR-positive P815 cells by freshly isolated NK cells (calcein release) in experiment [1] was 65%. Besides, the Kd in experiment [2] was 1.75 nM; in the experiment with CD16B-Fc^NA1 (human) [8], 8.91 nM; in experiment [9], 3.82 nM; in experiment [10], 5.17 nM; with CD16B-Fc^NA2 (human) [11], 9.63 nM; in the experiment with CD16B-Fc^SH (human) [12], 11.4 nM. Further, the koff was 0.000487 s⁻¹ with CD16B-Fc^NA1 (human) [3]; 0.00038 s⁻¹ in experiment [4]; 0.000406 s⁻¹ in experiment [5]; 0.000478 s⁻¹ with CD16B-Fc^NA2 (human) [6]; 0.000528 s⁻¹ with CD16B-Fc^SH (human) [7]; 0.000177 s⁻¹ in experiment [13]. Further, the kon in the experiment with CD16B-Fc^NA1 (human) [3] was 77200 M⁻¹ s⁻¹; in experiment [4], 99400 M⁻¹ s⁻¹; in experiment [5], 78600 M⁻¹ s⁻¹; with CD16B-Fc^NA2 (human) [6], 75700 M⁻¹ s⁻¹; with CD16B-Fc^SH (human) [7], 77900 M⁻¹ s⁻¹; in experiment [13], 101000 M⁻¹ s⁻¹.
